Results from doi:10.1101/2023.03.10.532002.
“And” between values parts separate entries of the source, which are not always exact repeats. Equal values may be shown once.

Experiments:
Conditions in all cases: remark: other sources report otherwise
[1] = target: T1, human arachidonate 12S-Lipoxygenase (12-LOX) (human), P18054; assay: cryo-EM structure
T1 chain: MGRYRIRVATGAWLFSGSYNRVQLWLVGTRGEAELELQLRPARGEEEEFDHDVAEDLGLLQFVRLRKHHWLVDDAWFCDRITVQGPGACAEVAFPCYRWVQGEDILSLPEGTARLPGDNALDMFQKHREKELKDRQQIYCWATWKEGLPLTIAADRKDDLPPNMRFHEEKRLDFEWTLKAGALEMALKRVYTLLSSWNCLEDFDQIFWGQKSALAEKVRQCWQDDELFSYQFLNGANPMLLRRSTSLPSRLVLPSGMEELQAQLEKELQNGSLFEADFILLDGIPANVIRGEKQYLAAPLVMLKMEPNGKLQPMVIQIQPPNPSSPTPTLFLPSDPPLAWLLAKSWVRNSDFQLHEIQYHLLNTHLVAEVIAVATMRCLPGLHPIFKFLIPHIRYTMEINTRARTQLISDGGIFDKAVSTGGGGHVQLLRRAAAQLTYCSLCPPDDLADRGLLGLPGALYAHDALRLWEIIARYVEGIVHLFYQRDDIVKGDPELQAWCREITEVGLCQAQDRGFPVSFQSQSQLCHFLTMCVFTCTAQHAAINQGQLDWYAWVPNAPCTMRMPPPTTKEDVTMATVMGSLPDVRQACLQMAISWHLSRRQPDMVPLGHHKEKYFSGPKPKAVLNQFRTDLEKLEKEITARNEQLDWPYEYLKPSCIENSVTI

[2] = target: T1, human arachidonate 12S-Lipoxygenase …; assay: cryo-EM structure
[3] = target: T1, human arachidonate 12S-Lipoxygenase …; assay: SEC
[4] = target: T1, human arachidonate 12S-Lipoxygenase …; assay: cryo-EM structure

B1: human arachidonate 12S-Lipoxygenase (12-LOX), P18054 1-663 (enzyme)
chain: MGRYRIRVATGAWLFSGSYNRVQLWLVGTRGEAELELQLRPARGEEEEFDHDVAEDLGLLQFVRLRKHHWLVDDAWFCDRITVQGPGACAEVAFPCYRWVQGEDILSLPEGTARLPGDNALDMFQKHREKELKDRQQIYCWATWKEGLPLTIAADRKDDLPPNMRFHEEKRLDFEWTLKAGALEMALKRVYTLLSSWNCLEDFDQIFWGQKSALAEKVRQCWQDDELFSYQFLNGANPMLLRRSTSLPSRLVLPSGMEELQAQLEKELQNGSLFEADFILLDGIPANVIRGEKQYLAAPLVMLKMEPNGKLQPMVIQIQPPNPSSPTPTLFLPSDPPLAWLLAKSWVRNSDFQLHEIQYHLLNTHLVAEVIAVATMRCLPGLHPIFKFLIPHIRYTMEINTRARTQLISDGGIFDKAVSTGGGGHVQLLRRAAAQLTYCSLCPPDDLADRGLLGLPGALYAHDALRLWEIIARYVEGIVHLFYQRDDIVKGDPELQAWCREITEVGLCQAQDRGFPVSFQSQSQLCHFLTMCVFTCTAQHAAINQGQLDWYAWVPNAPCTMRMPPPTTKEDVTMATVMGSLPDVRQACLQMAISWHLSRRQPDMVPLGHHKEKYFSGPKPKAVLNQFRTDLEKLEKEITARNEQLDWPYEYLKPSCIENSVTI
[1]
  stoichiometry N: 4
[2]
  stoichiometry N: 4
[3]
  stoichiometry N: 2 and 4
[4]
  stoichiometry N: 2 and 4 and 6
